Results published in article PMC9769388 (Journal of Virology, 2022).

Target: T1, soluble CD4 (D1D2 domains, residues 1 to 186)
T1 construct: also called sCD4; source: Expi293F, purified (StrepTrap HP, SEC)
Test: cryo-EM structure; Fab, soluble SOSIP trimer and sCD4 incubated at a molar ratio of 3.6:1:3.6 Fab/Env/sCD4 at room temperature for 4 h; single-particle cryo-EM of the ternary complex
Settings: both partners purified

B1: CG10 Fab (Fab, V domains shown)
VH: QVQLKQSGTELVRPGTSVKMSCKAAGYTFTDYWIGWVKQRPGHGLEWIGDFYPGGDYTLYSENFMGKASLTADTSSNTAYMQLSSLTSEDSAIYYCARGHYYGYSYAWFAYWGQGTLVTVSS
VL: DIVLTQSPASLAVSLGQRATISCKASQSVDYDGDSYMNWYQQKPGQPPKLLIYAASNLESGIPARFSGSGSGTDFTLNIHPVGEEDAATYYCQQSHEDPWTFGGGTMLEIK
notes: source: Expi293F, purified (Ni-NTA, SEC)
binding result: binds
